Laboratory results as given in US20150284450A1, “COMBINATION THERAPIES USING ANTI-PSEUDOMONAS PSL AND PCRV BINDING MOLECULES” (priority 2012, published 2015).

Legend:
[1] = system: P. aeruginosa 6077 (exoU+); test: Rabbit red blood cell lysis inhibition assay with strain 6077; assay type: cell-based, Pseudomonas aeruginosa; conditions: FIG. 12F
Protocol: Percent inhibition of cytotoxicity analysis was analysed for the parental V2L2 mAb, mAb166 (positive control) and R347 (negative control), where the antibodies were administered to cultured broncho-epithelial cell line A549 combined with log-phase P. aeruginosa strain 6077 (exoU+) at a MOI of approximately 10. A549 lysis was assayed by measuring released lactate dehydrogenase (LDH) activity and lysis in the presence of mAbs was compared to wells without mAb to determine percent inhibition. The V2L2 mAb, mAb166 (positive control) and R347 (negative control) were evaluated for their ability to prevent lysis of RBCs, where the antibodies were mixed with log-phase P. aeruginosa 6077 (exoU^+) and washed rabbit red blood cells (RBCs) and incubated for 2 hours at 37°. Intact RBCs were pelleted and the extent of lysis determined by measuring the OD405 of the cell-free supernatant. Lysis in the presence of anti-PcrV mAbs was compared to wells without mAb to determine percent inhibition.

[2] = system: P. aeruginosa 6206 (O11-ExoU+); test: Acute pneumonia model in mice, strain 6206; assay type: in vivo, Pseudomonas aeruginosa
Protocol: (§1) Antibodies or PBS were administered 24 hours before infection in each model. P. aeruginosa acute pneumonia, keratitis, and thermal injury infection models were performed as described (DiGiandomenico, A., et al., Proc Natl Acad Sci USA 104, 4624-4629 (2007)), with modifications. In the acute pneumonia model, BALB/c mice (The Jackson Laboratory) were infected with P. aeruginosa strains suspended in a 0.05 ml inoculum. In the thermal injury model, CF-1 mice (Charles River) received a 10% total body surface area burn with a metal brand heated to 92° C. for 10 seconds. Animals were infected subcutaneously with P. aeruginosa strain 6077 at the indicated dose. For organ burden experiments, acute pneumonia was induced in mice followed by harvesting of lungs, spleens, and kidneys 24 hours post-infection for determination of CFU.

[3] = system: P. aeruginosa PA103A (O11); test: Acute pneumonia model in mice, strain PA103A; assay type: in vivo, Pseudomonas aeruginosa; conditions: V2L2 0.04-5 mg/kg, FIG. 13I
Protocol: as §1
The in vivo effect of administration of an anti-PcrV antibodies was studied in mice using an acute pneumonia model. Groups of mice were treated with either increasing concentrations of the V2L2 antibody, a positive control anti-PcrV antibody (mAb166), or a negative control (R347), as shown in FIG. 13 (A-B). Groups of mice were also treated with either increasing concentrations of the V2L2 antibody, the PcrV antibody PcrV-02, or a negative control (R347), as shown in FIG. 13 (C-D). […]

[4] = system: P. aeruginosa 6077 (O11, cytotoxic); test: Acute pneumonia model in mice, strain 6077; assay type: in vivo, Pseudomonas aeruginosa; conditions: IP 24 h prior to intranasal 6077 (1×10^6 CFU/animal); FIG. 13E-G
Protocol: as §1

P. aeruginosa 6294 (O6) = test: Acute pneumonia model in mice, strain 6294; assay type: in vivo, Pseudomonas aeruginosa; conditions: for Overall Impression, lung histology: BALB/c mice
Protocol: as §1

[5] = 5.25×10^5 cfu 6206, single antibody: R347 2.1 mg/kg, V2L2 0.1 mg/kg, WapR-004 0.5 mg/kg, Table 5
[6] = 9.25×10^5 CFU 6206, 0.2 mg/kg (combination 0.1 mg/kg ea), Table 7
[7] = V2L2 0.07-5 mg/kg, intranasal 6206, FIG. 14A-B
[8] = 1.33×10^7 CFU 6294, 0.2 mg/kg (combination 0.1 mg/kg ea), Table 6A
[9] = 1.7×10^7 CFU 6294, 0.2 mg/kg (combination 0.1 mg/kg ea), Table 6B

B1: V2L2: anti-PcrV monoclonal antibody, epitope class 4; VH SEQ ID NO: 216, VL SEQ ID NO: 217 (antibody, V domains shown)
VH: EMQLLESGGGLVQPGGSLRLSCAASGFTFSSYAMNWVRQAPGEGLEWVSAITISGITAYYTDSVKGRFTISRDNSKNTLYLQMNSLRAGDTAVYYCAKEEFLPGTHYYYGMDVWGQGTTVTVSS
VL: AIQMTQSPSSLSASVGDRVTITCRASQGIRNDLGWYQQKPGKAPKLVIYSASTLQSGVPSRFSGSGSGTDFTLSISSLQPDDFATYYCLQDYNYPWTFGQGTKVEIK
modifications: V2L2 VH; V2L2 VL
potency in prevention of RBC lysis, V2L2 vs. 29D2 [1]: more potent in prevention of RBC lysis than the 29D2 | reduction in organ CFU compared to mAb166 at similar doses ([2]; 1 mg/kg, lung, FIG. 14B): significantly greater reduction in organ CFU than mAb166 | organ burden / tissue clearance (lung, spleen, kidney CFU) ([2]; 5.25×10^5 cfu 6206, V2L2 0.1 mg/kg, W4-RAD 0.5 mg/kg, combination, 24 h post infection, FIG. 15): effective in lowering organ burden | Inflammatory Infiltrate [2, 5]: PMN 3+ | Involved Lung Surface Area [2, 5]: 55% | Overall Impression, lung histology [2, 5]: Broncho interstitial pneumonia | Inflammatory Infiltrate [2, 6]: PMN 2-3+ | Involved Lung Surface Area [2, 6]: 40% | survival, in words ([2]; 6206, Bs3-V2L2 0.28 mg/kg, V2L2 0.2 mg/kg 24 h before infection, monitored 120 hours, FIG. 21A): survived, along with those which received the V2L2 control | Overall Impression, lung histology ([2]; BALB/c mice, 9.25×10^5 CFU 6206, 0.2 mg/kg (combination 0.1 mg/kg ea), Table 7): Broncho interstitial pneumonia | clearance in the kidney [2, 7]: little effect on clearance in the kidney | dissemination to lung and spleen [2, 7]: greatly reduced dissemination to both the lung and spleen in a dose-dependent manner | protection against additional strains [3]: protects against additional Pseudomonas strains | protection in vivo (survival) [4]: provides protection in vivo | protection compared to mAb166 at similar doses (P. aeruginosa 6294 (O6); 1 mg/kg, strain 6294, FIG. 13B): significantly more potent protection than mAb166 | Bacteria (P. aeruginosa 6294 (O6); [8]): Neg-1+ | Hemorrhage, extent in words (P. aeruginosa 6294 (O6); [8]): Extensive | Inflammatory Infiltrate (P. aeruginosa 6294 (O6); [8]): PMN 3+ | Involved Lung Surface Area (P. aeruginosa 6294 (O6); [8]): 57% | Bacteria (P. aeruginosa 6294 (O6); [9]): Neg | Inflammatory Infiltrate (P. aeruginosa 6294 (O6); [9]): PMN 2+ | Involved Lung Surface Area (P. aeruginosa 6294 (O6); 1.7×10^7 CFU 6294, 0.2 mg/kg, Table 6B): 30% | protection against additional strains (P. aeruginosa 6294 (O6); 6294, V2L2 0.04-5 mg/kg, FIG. 13I): protects against additional Pseudomonas strains | Overall Impression, lung histology (P. aeruginosa 6294 (O6); [8]): Broncho interstitial pneumonia | Overall Impression, lung histology (P. aeruginosa 6294 (O6); [9]): Broncho interstitial pneumonia | effect on survival (P. aeruginosa 6294 (O6); increasing doses of V2L2 24 h before infection, out to 168 hours post-infection, FIG. 13): dose-dependent effect on improved survival
